8 molecules from patent US20150344570A1 (published 2015) can be followed below.

This assay deals with T1, FcγRIIa R (human, UniProt P12318 34-217).
T1 construct: extracellular domain; also called FcgRIIa R type; 2aR
T1 sequence (looked up): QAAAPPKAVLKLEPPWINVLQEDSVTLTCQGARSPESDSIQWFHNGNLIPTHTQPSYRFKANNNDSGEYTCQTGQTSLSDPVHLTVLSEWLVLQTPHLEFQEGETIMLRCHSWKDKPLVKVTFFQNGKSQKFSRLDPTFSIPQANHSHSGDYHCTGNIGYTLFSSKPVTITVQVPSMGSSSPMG
The assay is described as follows: SPR (Biacore), captured antibody, FcγR as analyte; relative binding activity. (Surface plasmon resonance follows binding to a sensor surface in real time, without labels.)

B1: GpH7-B3 variant P238_04F/GpL16-k0 (antibody, human IgG1, kappa)
heavy: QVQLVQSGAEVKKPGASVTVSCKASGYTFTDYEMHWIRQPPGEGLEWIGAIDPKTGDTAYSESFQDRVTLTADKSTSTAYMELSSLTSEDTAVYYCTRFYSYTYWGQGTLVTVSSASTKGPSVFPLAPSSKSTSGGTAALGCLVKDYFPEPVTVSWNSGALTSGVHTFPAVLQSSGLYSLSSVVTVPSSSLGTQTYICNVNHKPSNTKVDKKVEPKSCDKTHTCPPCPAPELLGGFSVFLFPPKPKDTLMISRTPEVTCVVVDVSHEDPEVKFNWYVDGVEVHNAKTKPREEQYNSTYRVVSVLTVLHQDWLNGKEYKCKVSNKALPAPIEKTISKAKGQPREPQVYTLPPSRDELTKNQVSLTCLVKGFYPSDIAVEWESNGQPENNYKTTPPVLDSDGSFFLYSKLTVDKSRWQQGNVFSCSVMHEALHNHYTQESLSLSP
light: DIVMTQSPLSLPVTPGEPASISCQASESLVHSNRNTYLHWYLQKPGQSPQLLIYKVSNRFSGVPDRFSGSGSGTDFTLKISRVEAEDVGVYYCSQNTHVPPTFGQGTKVEIERTVAAPSVFIFPPSDEQLKSGTASVVCLLNNFYPREAKVQWKVDNALQSGNSQESVTEQDSKDSTYSLSSTLTLSKADYEKHKVYACEVTHQGLSSPVTKSFNRGEC
notes: also called Ho Ab P238_04F
As to B1, the Ho/Con_2aR is 146 % (GpH7-B3/GpL16-k0 = 100).

B2: GpH7-B3 variant P238_09D/GpL16-k0 (antibody, human IgG1, kappa)
heavy: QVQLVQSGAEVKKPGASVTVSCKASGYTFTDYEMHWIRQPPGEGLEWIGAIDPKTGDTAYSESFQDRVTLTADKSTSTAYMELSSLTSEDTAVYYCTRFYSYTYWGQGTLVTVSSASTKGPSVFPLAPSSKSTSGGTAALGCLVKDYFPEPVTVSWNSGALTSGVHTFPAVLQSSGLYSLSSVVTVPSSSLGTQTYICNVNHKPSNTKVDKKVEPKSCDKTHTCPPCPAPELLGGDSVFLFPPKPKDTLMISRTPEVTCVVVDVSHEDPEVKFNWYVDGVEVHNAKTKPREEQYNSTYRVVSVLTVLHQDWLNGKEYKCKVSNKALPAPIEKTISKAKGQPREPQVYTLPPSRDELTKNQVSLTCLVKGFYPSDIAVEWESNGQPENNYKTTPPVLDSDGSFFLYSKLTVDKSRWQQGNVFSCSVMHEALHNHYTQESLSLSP
light: DIVMTQSPLSLPVTPGEPASISCQASESLVHSNRNTYLHWYLQKPGQSPQLLIYKVSNRFSGVPDRFSGSGSGTDFTLKISRVEAEDVGVYYCSQNTHVPPTFGQGTKVEIERTVAAPSVFIFPPSDEQLKSGTASVVCLLNNFYPREAKVQWKVDNALQSGNSQESVTEQDSKDSTYSLSSTLTLSKADYEKHKVYACEVTHQGLSSPVTKSFNRGEC
notes: also called Ho Ab P238_09D
Consider B2, for which the Ho/Con_2aR is 13 % (GpH7-B3/GpL16-k0 = 100).

B3: GpH7-B3 variant P238_10E/GpL16-k0 (antibody, human IgG1, kappa)
heavy: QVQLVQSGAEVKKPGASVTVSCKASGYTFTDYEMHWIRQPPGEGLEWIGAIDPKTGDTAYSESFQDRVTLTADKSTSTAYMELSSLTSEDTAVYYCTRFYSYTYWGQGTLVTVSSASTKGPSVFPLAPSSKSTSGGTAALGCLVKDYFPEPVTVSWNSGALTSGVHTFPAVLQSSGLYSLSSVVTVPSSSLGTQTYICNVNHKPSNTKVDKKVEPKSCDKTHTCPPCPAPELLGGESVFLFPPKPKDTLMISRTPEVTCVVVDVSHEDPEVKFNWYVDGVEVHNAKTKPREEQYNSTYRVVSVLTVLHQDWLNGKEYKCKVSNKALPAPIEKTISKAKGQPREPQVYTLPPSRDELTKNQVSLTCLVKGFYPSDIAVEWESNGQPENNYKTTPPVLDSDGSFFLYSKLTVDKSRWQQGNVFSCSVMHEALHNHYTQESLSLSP
light: DIVMTQSPLSLPVTPGEPASISCQASESLVHSNRNTYLHWYLQKPGQSPQLLIYKVSNRFSGVPDRFSGSGSGTDFTLKISRVEAEDVGVYYCSQNTHVPPTFGQGTKVEIERTVAAPSVFIFPPSDEQLKSGTASVVCLLNNFYPREAKVQWKVDNALQSGNSQESVTEQDSKDSTYSLSSTLTLSKADYEKHKVYACEVTHQGLSSPVTKSFNRGEC
notes: also called Ho Ab P238_10E
In the case of B3, the Ho/Con_2aR was 21.4 % (GpH7-B3/GpL16-k0 = 100).

B4: GpH7-B3 variant P238_15Y/GpL16-k0 (antibody, human IgG1, kappa)
heavy: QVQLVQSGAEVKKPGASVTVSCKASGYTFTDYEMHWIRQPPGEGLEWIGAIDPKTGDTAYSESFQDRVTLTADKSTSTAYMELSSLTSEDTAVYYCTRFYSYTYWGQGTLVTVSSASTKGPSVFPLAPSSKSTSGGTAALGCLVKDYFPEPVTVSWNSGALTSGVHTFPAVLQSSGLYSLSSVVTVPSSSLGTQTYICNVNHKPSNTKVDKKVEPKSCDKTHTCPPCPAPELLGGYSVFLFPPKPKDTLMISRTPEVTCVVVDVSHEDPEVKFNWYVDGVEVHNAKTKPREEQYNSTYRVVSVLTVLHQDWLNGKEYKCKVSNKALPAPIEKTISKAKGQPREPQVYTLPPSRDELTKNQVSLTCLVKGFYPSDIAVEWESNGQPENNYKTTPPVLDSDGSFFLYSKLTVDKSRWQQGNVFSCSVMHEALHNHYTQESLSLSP
light: DIVMTQSPLSLPVTPGEPASISCQASESLVHSNRNTYLHWYLQKPGQSPQLLIYKVSNRFSGVPDRFSGSGSGTDFTLKISRVEAEDVGVYYCSQNTHVPPTFGQGTKVEIERTVAAPSVFIFPPSDEQLKSGTASVVCLLNNFYPREAKVQWKVDNALQSGNSQESVTEQDSKDSTYSLSSTLTLSKADYEKHKVYACEVTHQGLSSPVTKSFNRGEC
notes: also called Ho Ab P238_15Y
For B4, the Ho/Con_2aR was 95.9 % (GpH7-B3/GpL16-k0 = 100).

B5: GpH7-B3 variant P238_19Q/GpL16-k0 (antibody, human IgG1, kappa)
heavy: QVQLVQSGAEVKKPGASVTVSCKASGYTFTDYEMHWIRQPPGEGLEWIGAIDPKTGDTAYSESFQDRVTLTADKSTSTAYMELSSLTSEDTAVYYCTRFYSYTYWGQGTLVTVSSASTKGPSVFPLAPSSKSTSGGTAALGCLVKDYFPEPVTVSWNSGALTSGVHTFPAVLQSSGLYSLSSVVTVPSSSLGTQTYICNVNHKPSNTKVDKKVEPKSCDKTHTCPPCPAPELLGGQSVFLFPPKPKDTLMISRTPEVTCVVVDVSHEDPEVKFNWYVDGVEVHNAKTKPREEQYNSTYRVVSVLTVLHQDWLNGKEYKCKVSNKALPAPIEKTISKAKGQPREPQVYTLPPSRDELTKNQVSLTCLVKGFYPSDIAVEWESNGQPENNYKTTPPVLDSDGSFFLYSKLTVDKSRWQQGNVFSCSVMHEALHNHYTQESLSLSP
light: DIVMTQSPLSLPVTPGEPASISCQASESLVHSNRNTYLHWYLQKPGQSPQLLIYKVSNRFSGVPDRFSGSGSGTDFTLKISRVEAEDVGVYYCSQNTHVPPTFGQGTKVEIERTVAAPSVFIFPPSDEQLKSGTASVVCLLNNFYPREAKVQWKVDNALQSGNSQESVTEQDSKDSTYSLSSTLTLSKADYEKHKVYACEVTHQGLSSPVTKSFNRGEC
notes: also called Ho Ab P238_19Q
For the molecule B5, the Ho/Con_2aR is 19.4 % (GpH7-B3/GpL16-k0 = 100).

B6: GpH7-B3 variant P238_16H/GpL16-k0 (antibody, human IgG1, kappa)
heavy: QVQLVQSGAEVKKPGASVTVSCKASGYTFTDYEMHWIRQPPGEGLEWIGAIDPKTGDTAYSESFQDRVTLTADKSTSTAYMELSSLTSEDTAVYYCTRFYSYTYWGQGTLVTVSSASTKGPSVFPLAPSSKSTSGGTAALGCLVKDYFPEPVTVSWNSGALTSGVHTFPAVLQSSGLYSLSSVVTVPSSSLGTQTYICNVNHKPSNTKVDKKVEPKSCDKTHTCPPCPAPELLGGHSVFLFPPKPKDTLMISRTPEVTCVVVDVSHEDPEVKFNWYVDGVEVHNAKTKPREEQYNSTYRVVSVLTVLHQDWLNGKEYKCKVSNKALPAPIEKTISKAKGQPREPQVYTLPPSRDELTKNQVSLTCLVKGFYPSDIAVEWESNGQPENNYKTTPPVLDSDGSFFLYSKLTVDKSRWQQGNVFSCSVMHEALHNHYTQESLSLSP
light: DIVMTQSPLSLPVTPGEPASISCQASESLVHSNRNTYLHWYLQKPGQSPQLLIYKVSNRFSGVPDRFSGSGSGTDFTLKISRVEAEDVGVYYCSQNTHVPPTFGQGTKVEIERTVAAPSVFIFPPSDEQLKSGTASVVCLLNNFYPREAKVQWKVDNALQSGNSQESVTEQDSKDSTYSLSSTLTLSKADYEKHKVYACEVTHQGLSSPVTKSFNRGEC
notes: also called Ho Ab P238_16H
Regarding B6, the Ho/Con_2aR is 25.5 % (GpH7-B3/GpL16-k0 = 100).

B7: GpH7-B3 variant P238_06M/GpL16-k0 (antibody, human IgG1, kappa)
heavy: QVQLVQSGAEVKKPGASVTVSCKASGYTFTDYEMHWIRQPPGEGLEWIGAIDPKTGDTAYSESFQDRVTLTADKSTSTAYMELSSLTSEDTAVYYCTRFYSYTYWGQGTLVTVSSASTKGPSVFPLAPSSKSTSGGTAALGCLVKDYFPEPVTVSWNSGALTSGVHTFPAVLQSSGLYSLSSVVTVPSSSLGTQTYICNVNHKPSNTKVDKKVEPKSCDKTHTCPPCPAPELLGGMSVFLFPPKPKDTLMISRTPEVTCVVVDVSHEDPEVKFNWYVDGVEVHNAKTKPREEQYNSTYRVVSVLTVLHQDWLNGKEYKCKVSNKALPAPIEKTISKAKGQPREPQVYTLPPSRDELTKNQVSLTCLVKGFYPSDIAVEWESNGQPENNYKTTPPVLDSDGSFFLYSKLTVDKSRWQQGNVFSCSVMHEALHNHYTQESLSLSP
light: DIVMTQSPLSLPVTPGEPASISCQASESLVHSNRNTYLHWYLQKPGQSPQLLIYKVSNRFSGVPDRFSGSGSGTDFTLKISRVEAEDVGVYYCSQNTHVPPTFGQGTKVEIERTVAAPSVFIFPPSDEQLKSGTASVVCLLNNFYPREAKVQWKVDNALQSGNSQESVTEQDSKDSTYSLSSTLTLSKADYEKHKVYACEVTHQGLSSPVTKSFNRGEC
notes: also called Ho Ab P238_06M
Take B7: the Ho/Con_2aR was 88.9 % (GpH7-B3/GpL16-k0 = 100).

B8: GpH7-B3 variant P238_20W/GpL16-k0 (antibody, human IgG1, kappa)
heavy: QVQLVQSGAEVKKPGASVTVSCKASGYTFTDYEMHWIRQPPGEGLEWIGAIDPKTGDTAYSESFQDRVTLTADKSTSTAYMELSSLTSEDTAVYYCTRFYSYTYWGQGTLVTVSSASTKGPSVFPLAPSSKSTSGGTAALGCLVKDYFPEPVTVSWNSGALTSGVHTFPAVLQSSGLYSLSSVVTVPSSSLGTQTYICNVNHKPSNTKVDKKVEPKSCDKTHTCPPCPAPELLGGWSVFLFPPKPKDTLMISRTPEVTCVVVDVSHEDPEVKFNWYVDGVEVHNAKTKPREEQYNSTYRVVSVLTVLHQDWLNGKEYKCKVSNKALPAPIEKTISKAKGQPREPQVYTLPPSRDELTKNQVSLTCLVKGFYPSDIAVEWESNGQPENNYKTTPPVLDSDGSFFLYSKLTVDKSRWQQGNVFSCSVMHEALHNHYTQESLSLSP
light: DIVMTQSPLSLPVTPGEPASISCQASESLVHSNRNTYLHWYLQKPGQSPQLLIYKVSNRFSGVPDRFSGSGSGTDFTLKISRVEAEDVGVYYCSQNTHVPPTFGQGTKVEIERTVAAPSVFIFPPSDEQLKSGTASVVCLLNNFYPREAKVQWKVDNALQSGNSQESVTEQDSKDSTYSLSSTLTLSKADYEKHKVYACEVTHQGLSSPVTKSFNRGEC
notes: also called Ho Ab P238_20W
B8: the Ho/Con_2aR was 25.7 % (GpH7-B3/GpL16-k0 = 100).
